In assay [1] the target is eel LH/CGR-N201Q (eel).
Assay [2] addresses eel LH/CGR-N312Q (eel).
The target in assay [3] is eel LH/CGR-N49Q (eel).
The target in assay [4] is eel lutropin/chorionic gonadotropin receptor, wild type (eel).
Assay [5] has as its target eel LH/CGR-N306Q (eel).
Assay [6] concerns the target eel LH/CGR-N312Q (eel). This is another data set of the same source.
Assay [7] concerns the target eel LH/CGR-N49Q (eel). This is another data set of the same source.
The target in assay [8] is eel lutropin/chorionic gonadotropin receptor, wild type (eel). The source holds these as a separate data set.
The target of assay [9] is eel LH/CGR-N306Q (eel). This is another data set of the same source.

For the substance recombinant eel LH (ligand), the pERK1/2 activity (HTRF), transfected HEK-293 cells, rec-eel LH 250 ng/mL for 0-30 min; peak at 5 min, fold over the basal response of LH/CGR-wt in assay [1] was 2.6 fold; in assay [2], 3.7 fold; in [3] it was 3.3 fold; in [5] it was 3.1 fold. In assay [4], this substance had a pERK1/2 activity (HTRF), transfected HEK-293 cells, rec-eel LH 250 ng/mL for 0-30 min; peak at 5 min, fold over the basal response of 3.97 fold. The EC50 of the cAMP response (HTRF), transfected CHO-K1 cells, rec-eel LH for 30 min came to 0.235 µg/mL in [6], 0.215 µg/mL in [7], 0.19 µg/mL in assay [8] and 0.233 µg/mL in assay [9].

For the origin of these results see article PMC12110046.
